# Laboratory results reported in patent US20090325290A1.
# Key:
# [1] = target: HLA-DR on the human B-lymphoblastoid cell line LG-2 (human); assay: cell-based or functional assay
# [2] = target: HLA-DR antigen on the surface of HLA-DR positive cells (tumor cell lines other than PRIESS and LG-2, normal B cells, or cell line not stated) (human); assay: cell-based or functional assay
# [3] = target: HLA-DR (allotype and form not stated); assay: not stated (Z. A. Nagy, unpublished)
# Chain of murine anti-HLA-DR antibody L243 (VH): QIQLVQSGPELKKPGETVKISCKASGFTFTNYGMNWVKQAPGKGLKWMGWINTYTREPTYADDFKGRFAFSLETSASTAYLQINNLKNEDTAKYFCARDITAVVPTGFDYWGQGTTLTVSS
# Chain of murine anti-HLA-DR antibody L243 (VL): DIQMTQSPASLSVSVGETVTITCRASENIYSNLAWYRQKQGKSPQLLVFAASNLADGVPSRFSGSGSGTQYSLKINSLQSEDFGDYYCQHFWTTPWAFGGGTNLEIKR
substance,measurement,setting,value
murine anti-HLA-DR antibody L243,"% killing of LG-2 cells, 200 nM, 4 h",[1],79%
same,"% killing of ARH-77 cells (DR 12), 200 nM, 4 h",[2],88%
same,"% killing of BJAB cells (DR 12, 13), 200 nM, 4 h",[2],53%
same,"% killing of BONNA-12 cells, 200 nM, 4 h",[2],92%
same,"% killing of DOHH-2 cells (DR 1, 2), 200 nM, 4 h",[2],29%
same,"% killing of EOL-1 cells, 200 nM, 4 h",[2],22%
same,"% killing of GRANTA-519 cells (DR 2, 11), 200 nM, 4 h",[2],83%
same,"% killing of HC-1 cells, 200 nM, 4 h",[2],88%
same,"% killing of HD-MY-Z cells, 200 nM, 4 h",[2],35%
same,"% killing of HDLM-2 cells, 200 nM, 4 h",[2],77%
same,"% killing of KARPAS-299 cells (DR 1, 2), 200 nM, 4 h",[2],78%
same,"% killing of KARPAS-422 cells (DR 2, 4), 200 nM, 4 h",[2],25%
same,"% killing of KM-H2 cells, 200 nM, 4 h",[2],81%
same,"% killing of L1236 cells, 200 nM, 4 h",[2],52%
same,"% killing of L-363 cells, 200 nM, 4 h",[2],6%
same,"% killing of L-428 cells (DR 12), 200 nM, 4 h",[2],82%
same,"% killing of LP-1 cells, 200 nM, 4 h",[2],12%
same,"% killing of MHH-CALL-4 cells (DR 1, 2), 200 nM, 4 h",[2],35%
same,"% killing of MHH-PREB-1 cells, 200 nM, 4 h",[2],3%
same,"% killing of MN-60 cells (DR 10, 13), 200 nM, 4 h",[2],46%
same,"% killing of NALM-1 cells (DR 1, 4), 200 nM, 4 h",[2],44%
same,"% killing of RAJI cells (DR 10, 17), 200 nM, 4 h",[2],69%
same,"% killing of RPMI-8226 cells, 200 nM, 4 h",[2],6%
same,"% killing of SR-786 cells (DR 1, 2), 200 nM, 4 h",[2],3%
same,Kd,[3],10 nM
